Tests used:
[1] = target: Aβ1-42 peptide, monomer-enriched preparation; assay: ELISA assay 1, Ab 1:1 of 0.5 µg/ml
[2] = target: Aβ1-42 peptide, oligomer-enriched preparation; assay: ELISA assay 1, Ab 1:1 of 0.5 µg/ml
[3] = target: Aβ1-42 peptide, monomer-enriched preparation; assay: ELISA assay 1, Ab 1:2 of 0.5 µg/ml
[4] = target: Aβ1-42 peptide, oligomer-enriched preparation; assay: ELISA assay 1, Ab 1:2 of 0.5 µg/ml
[5] = target: Aβ1-42 peptide, oligomer-enriched preparation; assay: ELISA assay 1, Ab 1:4 of 0.5 µg/ml
[6] = target: Aβ1-42 peptide, monomer-enriched preparation; assay: ELISA assay 1, Ab 1:8 of 0.5 µg/ml
[7] = target: Aβ1-42 peptide, oligomer-enriched preparation; assay: ELISA assay 1, Ab 1:8 of 0.5 µg/ml
[8] = target: Aβ1-42 peptide, monomer-enriched preparation; assay: ELISA assay 2, Ab 1:1 of 0.5 µg/ml
[9] = target: Aβ1-42 peptide, oligomer-enriched preparation; assay: ELISA assay 2, Ab 1:1 of 0.5 µg/ml
[10] = target: Aβ1-42 peptide, monomer-enriched preparation; assay: ELISA assay 2, Ab 1:2 of 0.5 µg/ml
[11] = target: Aβ1-42 peptide, oligomer-enriched preparation; assay: ELISA assay 2, Ab 1:2 of 0.5 µg/ml
[12] = target: Aβ1-42 peptide, monomer-enriched preparation; assay: ELISA assay 2, Ab 1:4 of 0.5 µg/ml
[13] = target: Aβ1-42 peptide, oligomer-enriched preparation; assay: ELISA assay 2, Ab 1:4 of 0.5 µg/ml
[14] = target: Aβ1-42 peptide, oligomer-enriched preparation; assay: ELISA assay 2, Ab 1:8 of 0.5 µg/ml
[15] = target: Aβ1-42 peptide, monomer-enriched preparation; assay: ELISA assay 3, Ab 1:1 of 0.5 µg/ml
[16] = target: Aβ1-42 peptide, oligomer-enriched preparation; assay: ELISA assay 3, Ab 1:1 of 0.5 µg/ml
[17] = target: Aβ1-42 peptide, monomer-enriched preparation; assay: ELISA assay 3, Ab 1:2 of 0.5 µg/ml
[18] = target: Aβ1-42 peptide, oligomer-enriched preparation; assay: ELISA assay 3, Ab 1:2 of 0.5 µg/ml
[19] = target: Aβ1-42 peptide, monomer-enriched preparation; assay: ELISA assay 3, Ab 1:4 of 0.5 µg/ml
[20] = target: Aβ1-42 peptide, oligomer-enriched preparation; assay: ELISA assay 3, Ab 1:4 of 0.5 µg/ml
[21] = target: Aβ1-42 peptide, oligomer-enriched preparation; assay: ELISA assay 3, Ab 1:8 of 0.5 µg/ml
[22] = target: Aβ1-42 peptide, monomer-enriched preparation; assay: ELISA assay 1, Ab 1:16 of 0.5 µg/ml
[23] = target: Aβ1-42 peptide, oligomer-enriched preparation; assay: ELISA assay 1, Ab 1:16 of 0.5 µg/ml
[24] = target: Aβ1-42 peptide, monomer-enriched preparation; assay: ELISA assay 1, Ab 1:32 of 0.5 µg/ml
[25] = target: Aβ1-42 peptide, oligomer-enriched preparation; assay: ELISA assay 1, Ab 1:32 of 0.5 µg/ml
[26] = target: Aβ1-42 peptide, monomer-enriched preparation; assay: ELISA assay 1, Ab 1:64 of 0.5 µg/ml
[27] = target: Aβ1-42 peptide, oligomer-enriched preparation; assay: ELISA assay 1, Ab 1:64 of 0.5 µg/ml
[28] = target: Aβ1-42 peptide, monomer-enriched preparation; assay: ELISA assay 2, Ab 1:16 of 0.5 µg/ml
[29] = target: Aβ1-42 peptide, oligomer-enriched preparation; assay: ELISA assay 2, Ab 1:16 of 0.5 µg/ml
[30] = target: Aβ1-42 peptide, monomer-enriched preparation; assay: ELISA assay 2, Ab 1:32 of 0.5 µg/ml
[31] = target: Aβ1-42 peptide, oligomer-enriched preparation; assay: ELISA assay 2, Ab 1:32 of 0.5 µg/ml
[32] = target: Aβ1-42 peptide, monomer-enriched preparation; assay: ELISA assay 2, Ab 1:64 of 0.5 µg/ml
[33] = target: Aβ1-42 peptide, oligomer-enriched preparation; assay: ELISA assay 2, Ab 1:64 of 0.5 µg/ml
[34] = target: Aβ1-42 peptide, monomer-enriched preparation; assay: ELISA assay 3, Ab 1:16 of 0.5 µg/ml
[35] = target: Aβ1-42 peptide, oligomer-enriched preparation; assay: ELISA assay 3, Ab 1:16 of 0.5 µg/ml
[36] = target: Aβ1-42 peptide, monomer-enriched preparation; assay: ELISA assay 3, Ab 1:32 of 0.5 µg/ml
[37] = target: Aβ1-42 peptide, oligomer-enriched preparation; assay: ELISA assay 3, Ab 1:32 of 0.5 µg/ml
[38] = target: Aβ1-42 peptide, monomer-enriched preparation; assay: ELISA assay 3, Ab 1:64 of 0.5 µg/ml
[39] = target: Aβ1-42 peptide, oligomer-enriched preparation; assay: ELISA assay 3, Ab 1:64 of 0.5 µg/ml
[40] = target: Aβ1-42 peptide, high molecular weight (HMW) proto-fibrillar (PF) oligomer enriched preparation (human); assay: ELISA on coated fraction, Ab 1 µg/ml
[41] = target: Aβ1-42 peptide, low molecular weight (LMW) monomer preparation (human); assay: ELISA on coated fraction, Ab 1 µg/ml
[42] = target: Aβ1-42 peptide, monomer-enriched preparation; assay: ELISA assay 1, Ab 1:128 of 0.5 µg/ml

Chain of Aβ1-42 peptide, monomer-enriched preparation (peptide, as listed by the source, form in doubt): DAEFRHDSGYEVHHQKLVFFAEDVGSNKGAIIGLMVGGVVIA
Chain of Aβ1-42 peptide, oligomer-enriched preparation (peptide, as listed by the source, form in doubt): as above
Chain of Aβ1-42 peptide, low molecular weight (LMW) monomer preparation (human) (peptide, as listed by the source, form in doubt): as above
Chain of Aβ1-42 peptide, high molecular weight (HMW) proto-fibrillar (PF) oligomer enriched preparation (human) (peptide, as listed by the source, form in doubt): as above

O.D. [1]: 3.67 O.D.
O.D. [2]: 3.36 O.D.
O.D. [3]: 3.3 O.D.
O.D. [4]: 3.39 O.D.
O.D. [5]: 3.1 O.D.
O.D. [6]: 2.67 O.D.
O.D. [7]: 2.73 O.D.
O.D. [8]: 3.77 O.D.
O.D. [9]: 3.67 O.D.
O.D. [10]: 3.48 O.D.
O.D. [11]: 3.55 O.D.
O.D. [12]: 3.29 O.D.
O.D. [13]: 3.37 O.D.
O.D. [14]: 2.99 O.D.
O.D. [15]: 4.04 O.D.
O.D. [16]: 3.89 O.D.
O.D. [17]: 4 O.D.
O.D. [18]: 3.83 O.D.
O.D. [19]: 3.52 O.D.
O.D. [20]: 3.64 O.D.
O.D. [21]: 3.23 O.D.
O.D. [22]: 1.78 O.D.
O.D. [23]: 1.78 O.D.
O.D. [24]: 1.18 O.D.
O.D. [25]: 1.27 O.D.
O.D. [26]: 0.81 O.D.
O.D. [27]: 0.93 O.D.
O.D. [28]: 1.94 O.D.
O.D. [29]: 1.92 O.D.
O.D. [30]: 1.34 O.D.
O.D. [31]: 1.3 O.D.
O.D. [32]: 0.94 O.D.
O.D. [33]: 0.88 O.D.
O.D. [34]: 2.23 O.D.
O.D. [35]: 2.07 O.D.
O.D. [36]: 1.54 O.D.
O.D. [37]: 1.4 O.D.
O.D. [38]: 1.08 O.D.
O.D. [39]: 0.95 O.D.
O.D. [40]: 2.55 O.D.
O.D. [41]: 2.68 O.D.
O.D. [42]: 0.64 O.D.
Substance: 6E10 control antibody

Source: patent EP2170953B1
